Reference: patent US20140105889A1 (published 2014)
Positions count from the first letter of the chain named. Values belong to the binder of their own block, whether it stands above or below them.

How the values were obtained:
human FcγRIa [1] = molecular target: T1, human FcγRIa (human, UniProt P12314 16-292, limits assumed); assay: SPR (Biacore), FcγR over captured antibody; amount bound relative to IL6R-BF648/IL6R-L x100
T1 construct: also called CD64
T1 sequence (P12314 16-292 limits assumed): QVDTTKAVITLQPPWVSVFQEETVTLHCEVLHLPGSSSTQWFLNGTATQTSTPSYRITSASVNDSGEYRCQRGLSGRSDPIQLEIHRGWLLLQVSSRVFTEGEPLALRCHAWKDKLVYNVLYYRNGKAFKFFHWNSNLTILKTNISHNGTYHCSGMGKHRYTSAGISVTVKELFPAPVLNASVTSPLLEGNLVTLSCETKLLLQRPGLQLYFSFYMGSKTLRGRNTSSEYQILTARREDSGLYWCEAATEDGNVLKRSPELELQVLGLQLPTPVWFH

human FcγRIIa type R = molecular target: T2, human FcγRIIa type R (human, UniProt P12318 36-217); assay: as above
T2 construct: also called FcγRIIaR; FcγRIIa(R)
T2 chain: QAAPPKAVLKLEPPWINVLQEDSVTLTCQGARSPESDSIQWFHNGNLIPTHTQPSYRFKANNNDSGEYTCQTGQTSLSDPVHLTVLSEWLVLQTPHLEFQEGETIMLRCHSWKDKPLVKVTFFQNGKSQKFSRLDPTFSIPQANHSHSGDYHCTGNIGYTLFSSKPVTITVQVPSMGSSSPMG

human FcγRIIa type H [2] = molecular target: T3, human FcγRIIa type H (human, UniProt P12318 36-217); assay: as above
T3 construct: Whole entry named for FcγRIIa allotype H131 (AAH20823.1); also called FcγRIIaH; FcγRIIa(H)
T3 sequence: T2 chain with R133H

human FcγRIIb [3] = molecular target: T4, human FcγRIIb (human, UniProt P31994 43-217); assay: as above
T4 construct: also called FcγIIB
T4 sequence: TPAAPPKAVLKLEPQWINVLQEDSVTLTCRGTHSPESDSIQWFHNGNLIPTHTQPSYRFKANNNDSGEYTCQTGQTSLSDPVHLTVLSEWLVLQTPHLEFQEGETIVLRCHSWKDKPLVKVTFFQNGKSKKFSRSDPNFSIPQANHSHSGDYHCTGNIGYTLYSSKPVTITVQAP

human FcγRIa [4] = molecular target: T5, human FcγRIa (human, UniProt P12314 16-292, limits assumed); assay: SPR (Biacore); binding amount divided by that of control IL6R-BF648/IL6R-L, x100
T5 construct: also called FcgRIa; CD64
T5 sequence (P12314 16-292 limits assumed): as the sequence (P12314 16-292 limits assumed) above
Protocol: (§1) According to the following method, relative binding activities were calculated for the results of analyzing interactions with the respective FcγRs.

human FcγRIIa type H [5] = molecular target: T6, human FcγRIIa type H (human, UniProt P12318 36-217); assay: as above
T6 construct: also called FcgRIIaH; FcγRIIa(H)
T6 sequence: T2 chain with R133H
Protocol: as §1

human FcγRIIb [6] = molecular target: T7, human FcγRIIb (human, UniProt P31994 43-217, limits assumed); assay: as above
T7 construct: also called FcgRIIb; FcγIIB
T7 sequence: T4 sequence
Protocol: as §1

human FcγRIIb [7] = molecular target: T8, human FcγRIIb (human, UniProt P31994 43-217); assay: SPR (Biacore); KD of parent IL6R-B3/IL6R-L for FcγRIIb divided by KD of the variant for FcγRIIb
T8 construct: also called FcγIIB
T8 sequence: T4 sequence
Description: Furthermore, KD(IIaR)/KD(IIb) and KD(IIaH)/KD(IIb) in the table respectively represent the value obtained by dividing the KD value of each variant for FcγRIIaR by the KD value of each variant for FcγRIIb, and the value obtained by dividing the KD value of each variant for FcγRIIaH by the KD value of each variant for FcγRIIb.

human FcγRIIIa type V = molecular target: T9, human FcγRIIIa type V (human, UniProt P08637 17-208, limits assumed); assay: SPR (Biacore), FcγR over captured antibody; amount bound relative to IL6R-BF648/IL6R-L x100
T9 construct: also called FcγRIIIaV; FcγRIIIa(V)
T9 sequence (P08637 other isoform, or with tags, fused parts or gaps limits assumed): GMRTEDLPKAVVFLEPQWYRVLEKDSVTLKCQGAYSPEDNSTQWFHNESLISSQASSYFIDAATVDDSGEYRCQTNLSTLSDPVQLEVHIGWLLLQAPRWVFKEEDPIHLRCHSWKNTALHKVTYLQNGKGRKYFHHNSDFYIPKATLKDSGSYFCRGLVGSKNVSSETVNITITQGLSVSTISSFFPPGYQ

B1: IL6R-BP112/IL6R-L (antibody, human IgG1)
heavy: QVQLQESGPGLVKPSETLSLTCAVSGHSISHDHAWSWVRQPPGEGLEWIGFISYSGITNYNPSLQGRVTISRDNSKNTLYLQMNSLRAEDTAVYYCARSLARTTAMDYWGEGTLVTVSSASTKGPSVFPLAPSSKSTSGGTAALGCLVKDYFPEPVTVSWNSGALTSGVHTFPAVLQSSGLYSLSSVVTVPSSSLGTQTYICNVNHKPSNTKVDKKVEPKSCDKTHTCPPCPAPELLGGDSVFLFPPKPKDTLMISRTPEVTCVVVDVSHEDGEVKFNWYVDGVEVHNAKTKPREEQYNSTYRVVSVLTVLHQDWLNGKEYKCKVSNKALPAPIEKTISKAKGQPREPQVYTLPPSRDELTKNQVSLTCLVKGFYPSDIAVEWESNGQPENNYKTTPPVLDSDGSFFLYSKLTVDKSRWQQGNVFSCSVMHEALHNHYTQESLSLSP
light: DIQMTQSPSSLSASVGDRVTITCRASQDISSYLNWYQQKPGKAPKLLIYYTSRLHSGVPSRFSGSGSGTDFTFTISSLQPEDIATYYCQQGNTLPYTFGQGTKVEIK
notes: copies: 2 + 2
relative binding (human FcγRIa [1]): 119 relative value (IL6R-BF648/IL6R-L = 100) | relative binding (human FcγRIIa type R): 340 relative value (IL6R-BF648/IL6R-L = 100) | relative binding (human FcγRIIa type H [2]): 113 relative value (IL6R-BF648/IL6R-L = 100) | relative binding (human FcγRIIb [3]): 157 relative value (IL6R-BF648/IL6R-L = 100)

B3: IL6R-BP126/IL6R-L (antibody, human IgG1)
heavy: B1 heavy with G273P, K328L
light: B1 light
notes: copies: 2 + 2
relative binding (human FcγRIa [1]): 113 relative value (IL6R-BF648/IL6R-L = 100) | relative binding (human FcγRIIa type R): 167 relative value (IL6R-BF648/IL6R-L = 100) | relative binding (human FcγRIIa type H [2]): 132 relative value (IL6R-BF648/IL6R-L = 100) | relative binding (human FcγRIIb [3]): 103 relative value (IL6R-BF648/IL6R-L = 100)

B5: IL6R-BP117/IL6R-L (antibody, human IgG1)
heavy: B1 heavy with G273P, K328D
light: B1 light
notes: copies: 2 + 2
relative binding (human FcγRIa [1]): 124 relative value (IL6R-BF648/IL6R-L = 100) | relative binding (human FcγRIIa type R): 166 relative value (IL6R-BF648/IL6R-L = 100) | relative binding (human FcγRIIa type H [2]): 96 relative value (IL6R-BF648/IL6R-L = 100) | relative binding (human FcγRIIb [3]): 118 relative value (IL6R-BF648/IL6R-L = 100)

B9: IL6R-BP142/IL6R-L (antibody, human IgG1)
heavy: B1 heavy with G273P, K328N
light: B1 light
notes: copies: 2 + 2
relative binding (human FcγRIa [1]): 98 relative value (IL6R-BF648/IL6R-L = 100) | relative binding (human FcγRIIa type R): 103 relative value (IL6R-BF648/IL6R-L = 100) | relative binding (human FcγRIIa type H [2]): 97 relative value (IL6R-BF648/IL6R-L = 100) | relative binding (human FcγRIIb [3]): 106 relative value (IL6R-BF648/IL6R-L = 100)

B10: IL6R-2B128/IL6R-L (antibody, human IgG1)
heavy: B1 heavy with G273P, Y298D
light: B1 light
notes: copies: 2 + 2
relative binding (human FcγRIa [1]): 95 relative value (IL6R-BF648/IL6R-L = 100) | relative binding (human FcγRIIa type R): 87 relative value (IL6R-BF648/IL6R-L = 100) | relative binding (human FcγRIIa type H [2]): 37 relative value (IL6R-BF648/IL6R-L = 100) | relative binding (human FcγRIIb [3]): 103 relative value (IL6R-BF648/IL6R-L = 100) | relative binding (human FcγRIIIa type V): 96 relative value (IL6R-BF648/IL6R-L = 100)

The next lines start with the values.

relative binding activity (human FcγRIa [4]): 36 % of IL6R-BF648/IL6R-L | relative binding activity (human FcγRIIa type H [5]): 285 % of IL6R-BF648/IL6R-L | relative binding activity (human FcγRIIb [6]): 174 % of IL6R-BF648/IL6R-L
B2: IL6R-BP214/IL6R-L (antibody)
heavy: B1 heavy with E235D, L236Y, G239D, G273P, Y298D, K328D, A332K
light: B1 light
notes: copies: 2 + 2

relative binding (human FcγRIa [1]): 52 relative value (IL6R-BF648/IL6R-L = 100) | relative binding (human FcγRIIa type R): 101 relative value (IL6R-BF648/IL6R-L = 100) | relative binding (human FcγRIIa type H [2]): 108 relative value (IL6R-BF648/IL6R-L = 100) | relative binding (human FcγRIIb [3]): 119 relative value (IL6R-BF648/IL6R-L = 100)
B4: IL6R-BP911/IL6R-L (antibody, human IgG1)
heavy: B1 heavy with G273P, A332K
light: B1 light
notes: copies: 2 + 2

KD(IIb) of the parent polypeptide/KD(IIb) of the altered polypeptide (human FcγRIIb [7]): 27.3
B6: IL6R-BP192/IL6R-L (antibody, human IgG1)
heavy: B1 heavy with E235D, H270D, Y298D, A332K
light: B1 light
notes: Anti-human IL-6 receptor human IgG1 variant; copies: 2 + 2

relative binding activity (human FcγRIa [4]): 110 % of IL6R-BF648/IL6R-L | relative binding activity (human FcγRIIa type H [5]): 137 % of IL6R-BF648/IL6R-L | relative binding activity (human FcγRIIb [6]): 165 % of IL6R-BF648/IL6R-L
B7: IL6R-BP204/IL6R-L (antibody, human IgG1)
heavy: B1 heavy with E235D, K328A, A332R
light: B1 light
notes: The common L chain is IL6R-L; copies: 2 + 2

KD(IIb) of the parent polypeptide/KD(IIb) of the altered polypeptide (human FcγRIIb [7]): 25.5
B8: IL6R-BP193/IL6R-L (antibody, human IgG1)
heavy: B1 heavy with E235D, H270D, A332K
light: B1 light
notes: as for B6
